# According to PMC4909209:
# Target: ubiquitin tagged Ac-AChBP (Aplysia californica acetylcholine binding protein) (Aplysia californica)
# Test: SEC; analytical Superdex 200 10/300 calibrated with molecular weight standards; oligomerization state in solution
substance,measurement,value
ubiquitin tagged Ac-AChBP (Aplysia californica acetylcholine binding protein) (natural protein),stoichiometry N,5
